Here are results for 12 sequences from the DeepSol protein solubility set.

The nature of the series: soluble on expression in E. coli; label from the status in PepcDB or PDB records.
Take “MAKTLKTLYQCTECGGTSPKWQGKCPHCGEWNTLQESLAAPEPKNARFQSWAADTSTVQSLSAVTATEVPRNPTGMGELDRVLGGGLVDGAVILLGGDPGIGKSTLLLQTIAKMAQSRKVLYVSGEESAQQVALRAQRLELPTDGVNLLAEIRMEAIQAALKQHQPEVVVIDSIQTMYSDQITSAPGSVSQVRECAAQLTRMAKQMGIAMILVGHVTKDGAIAGPRVLEHMVDTVLYFEGDQHSNYRMIRAIKNRFGAANELGVFAMTENGLKGVSNPSAIFLASYRDDTPGSCVLVTQEGSRPLLVEIQALVDDAHGFTPKRLTVGLEQNRLAMLLAVLNRHGGIACFDQDVFLNAVGGV”: the “soluble on expression in E. coli” value is reported as “not soluble”.

On to “MSLDIRRANSADLNALNALEQQLFDGDRISPRQMKRFLHSDHAALFVADAGDQLAGYALLLFHQGTQLSRLYSIAVKPEFRGQRIAQSLVEQCERAALDQGSTTLRLEVREDNTAALKLYEKMGYKTLKLLIHYYDDLCDGRRMQKRLTPQESKVLLPMPLYVQTTPFTCGAACLLMSFACLDKTFEPSRTQEMQLWREATTIFMAAGHGGCSGQGLALAAARRGYHVELWNQSRSTPFIDSVRDPNKKQIIELVHQDFCQQLAEQDVSMIDAPPSQAQLEEWVRKGACVLLLISTYRFDGKKEPHWIVLSGLSDKFFFFHDPHAESEEHVSGSGYIPVGKAALSQIIGFGKQKQIACVVITPRLEGHHHHHH”, for which the “soluble on expression in E. coli” value was “soluble”. As for “MGSDKIHHHHHHETLRAFQRKAYESTEKTNCVCFFIQEALEIAENLEHLATDPNYQKPPLFGVPVSIKESIHVKNLDSTAGYAQKINNPSDANSVSVDQLIRLGAVPFVHTNIPIALLSYGCSNGVYGTTLNPLDNSRVPGGSSGGEAALVSLGGSVLGIGTDVGGSIRTPASFCGLAGFKSSSDRSPQLGKTASIPGRQLLLSVEGPIAKNIDVCVEYLRLKWNDPLLYKKDVYMPPVKFQENLYNSEKPLKIGYYTFDGYQTASPAYQRAVRETVAVLKELGHELVPFEVPQPDHMYSIFCAGATADGGLYLMDSLANDIIPPEADIGFPVAKLPHFIQRLLRKYWHHRRERQIIQELPHDTEEMRQMHEKIEDYRHEFVLAMRAKKLDALVCPAFGCPPPHHGMPNKILGANSYPALYNLIDFAAGTVPVTVQKQEDEVELRKMKTEDSWDRRVVTESKNCIGLPVSVQIATPPYREEMCLRLLKQVEAKIGLYSRTH”, the “soluble on expression in E. coli” value is recorded as “not soluble”. The result for “MGSDKIHHHHHHMKIIKLRNNSPEFNYKMIVLARESRGIGQRELATLVETDQGNLSRIEKGAQTPVKDMIERISKALDYPVSFFRLQHSVYDFSKSYYRRKLKMPKKEIELSEAKINISKINIETLIRAVELPEPNYPTFDLSKDLSASACAIQLRKYWKLPHGRVENFTKVLEDNGVLVANIDFAGIEVDGHAILTENNLPIIFINKNITADRYRLTLAHELGHLCLHVGREIAEDRDVEQEAFMFAAELLTPEVEIAPDLCEVSIEKLKELKKYWKVSMGSLLKRAHVLKGVSDNQYKYLWQQMGNMGYKTVEPKELEFEKEKPKLLKEIIDAHLEELQYSEDELSELLGLKIQEFAKSYAPARPRLRVSKGKAR” reads “not soluble”; that for “MRKIVLLSQIVRPALSSARFVHTSTPLSWQKFENERHFEPGEDVMKRVWHGLSYDFRRWKRRFQEARKDAFKRRHPIAHMKHGTLDNEVFPYRAEIVIIGGGLSGSSTAFWLKERFRDEDFKVVVVENNDVFTKSSTMLSTGGITQQFSIPEFVDMSLFTTEFLRHAGEHLRILDSEQPDINFFPTGYLRLAKTDEEVEMMRSAWKVQIERGAKVQLLSKDELTKRYPYMNVDDVLLASLGVENEGTIDTWQLLSAIREKNITLGVQYVKGEVEGFQFERHRASSEVHAFGDDATADENKLRAQRISGVLVRPQMNDASARPIRAHLIVNAAGPWAGQVAKMAGIGKGTGLLAVPVPIQPRKRDVFVIFAPDVPSDLPFIIDPSTGVFCRQTDSGQTFLVGRTPSKEEDAKRDHSNLDVDYDDFYQKIWPVLVDRVPGFQTAKVKSAWSGYQDINTFDDAPVIGEHPLYTNLHMMCGFGERGVMHSMAAARAYAERIFDGAYINVNLRKFDMRRIVKMDPITEPCRL”, “not soluble”.

Take “MPVFVKLTGGSIGLQAGVQSSDVVLVFRNDRNLDNIVNGKFTLGADASVAAGPVGRNALAATDSELKAEIYSWSTARGLFAGIALDGAALQIDDSANLDVYGKGTTPRMIFEGRTAEPPSSDVIAFRDRLEEVTYTARNNLEHHHHHH”: the “soluble on expression in E. coli” value is on record as “soluble”. Next, “MKAVKATLMYDGLGNIEKNVYIIFDKDIVNITREKPKDVEVVAEGVVTPAFIDAHSHIGMDRYGEPYQESELNEQMDSVLPLADALYSIYMDDKAFKHSIEFGVLYSSILPGSGNIIGGKGVLIRNYGRDIEDAFIKYVGVKAAFGYNPRSTTNWKGLRPSTRMGAIGILFNWLIKTKKTISLLEKGKKDPEEIDPVIEALIPVLKGEMPLRVHAHKEDDIAVLLMIKRKFNLKVTVEHAADVHSKETFEKIKREGVPLVYGPLDAHPYKVELKHEDWKNAKYLLEVKPFFGLMSDHPFSIQANLYLQLRHFIRLGMSKAEAIKLITYNNAKILGIEDKLGSLEKGKWASLVVWNGDPFNLENYPTHVFAEGELIHEANL”: “soluble”; “NYDPFVRHSVTVKADRKTAFKTFLEGFPEWWPNNFRTTKVGAPLGVDKKGGRWYEIDEQGEEHTFGLIRKVDEPDTLVIGWRLNGFGRIDPDNSSEFTVTFVADGQKKTRVDVEHTHFDRMGTKHAKRVRNGMDKGWPTILQSFQDKIDEEGAKK”: “soluble”; “MFQNSPMMYDWWNDTTKPKHQQPTLNVLSPWGAYFNHIGNELLHLKIASSTVSSGCSSPQQYSSARSVGNSLSNGSVVSTTSSDGDVQLSNKENSNDKSVGDKNGNTTTNKTTVEPPPPEEPPVRVRASHREKLSDSEVLNQLREIVNPSNPLGKYEMKKQIGVGASGTVFVANVAGSTDVVAVKRMAFKTQPKKEMLLTEIKVMKQYRHPNLVNYIESYLVDADDLWVVMDYLEGGNLTDVVVKTELDEGQIAAVLQECLKALHFLHRHSIVHRDIKSDNVLLGMNGEVKLTDMGFCAQIQPGSKRDTVVGTPYWMSPEILNKKQYNYKVDIWSLGIMALEMIDGEPPYLRETPLKAIYLIAQNGKPEIKQRDRLSSEFNNFLDKCLVVDPDQRADTTELLAHPFLKKAKPLSSLIPYIRAVREK”: “not soluble”. For “MKKVAIVGLGWLGMPLAMSLSARGWQVTGSKTTQDGVEAARMSGIDSYLLRMEPELVCDSDDLDALMDADALVITLPARRSGPGDEFYLQAVQELVDSALAHRIPRIIFTSSTSVYGDAQGTVKETTPRNPVTNSGRVLEELEDWLHNLPGTSVDILRLAGLVGPGRHPGRFFAGKTAPDGEHGVNLVHLEDVIGAITLLLQAPKGGHIYNICAPAHPARNVFYPQMARLLGLEPPQFRNSLDSGKGKIIDGSRICNELGFEYQYPDPLVMPLE”, the “soluble on expression in E. coli” value is given as “soluble”. Next, “MGSDKIHHHHHHMEWQAEQAYNHLPPLPLDSKLAELAETLPILKACIPARAALAELKQAGELLPNQGLLINLLPLLEAQGSSEIENIVTTTDKLFQYAQEDSQADPMTKEALRYRTALYQCFTQLSNRPLCVTTALEICSTIKSVQMDVRKVPGTSLTNQATGEVIYTPPAGESVIRDLLSNWEAFLHNQDDVDPLIKMAMAHYQFEAIHPFIDGNGRTGRVLNILYLIDQQLLSAPILYLSRYIVAHKQDYYRLLLNVTTQQEWQPWIIFILNAVEQTAKWTTHKIAAARELIAHTTEYVRQQLPKIYSHELVQVIFEQPYCRIQNLVESGLAKRQTASVYLKQLCDIGVLEEVQSGKEKLFVHPKFVTLMTKDSNQFSRYAL”: “not soluble”; “MSLGYHTLEVTVGNEAETATVISAPEKIELLDDMKNGSLWGWMSQLYSIRSKGSWGVGDFEDLKTMLVEAKKKTGSDFMLINPMHAAEPVPPLTPSPYLPISRRFINFSYIRPESMPEYLTLSHEDRAEVDALHEQVESLNDDARLIDRDAMWRVKKHALWVIYKAGRTKARQAEFDRYLAECGDEIESYATWCLCYDKWGAPSDDADNWVRKYNRDSEEVAQLREKFPDTLEFYRWLEWVATDQLHAAQQAARKAGMKIGIVADMAVGVHPAGSDVWWNPERFAKGATVGAPPDMFNQQGQDWSQPPLNPIALEQTGFKVYRDMVHDMFANAGAVRIDHILGLFRLWWIPEGKPATDGTYVHYDSDVMLGILALEASRAGGVVVGEDLGVVPAYVSKSLSEHGILGCAVEWFEQMDGVFRTPKDWRPYALASVNTHDMPPAAGYLEYGHVKLREQLGLLSGPVEEFQKSATAEHNAMLNMLVEEGYLDKAALDDEAANENEIVDALYRGLKGSPCKLMAASIVDAVGEKRTQNQPGTNNEYPNWRIPLADGEGNVVPLEKLFDEPRLQEITAIMREGHHHHHH”: “not soluble”.
